{"source": "paper PMC3781045", "target": "T1, rZur (ZurPA, Np20) (Pseudomonas aeruginosa PAO1?) (UniProt Q9HT74)", "T1 sequence": "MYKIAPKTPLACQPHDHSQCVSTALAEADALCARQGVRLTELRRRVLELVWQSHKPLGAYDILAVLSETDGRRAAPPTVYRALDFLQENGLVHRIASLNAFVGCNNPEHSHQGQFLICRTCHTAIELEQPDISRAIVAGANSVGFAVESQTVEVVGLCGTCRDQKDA", "assay": "EMSA", "conditions": "10 mM Tris-HCl pH 8.0, 40 mM KCl, 10 mM MgCl2, 1 mM DTT, 5% glycerol, 1 uM ZnCl2, 0.5 ug salmon sperm DNA; room temperature 30 min; gel at 4 C", "data": [{"sequence": "CGGCGAAGCCAGCAGGAACAGGGCGAAGCAGGCGGACAGCAGGGCAAAGGGACGCAGGGTCACGGCGGCACTCACATGAAAGGTGGTTAGCGGGTAATATAATAACGTCTCTACCCTCGAGCGTCGCAGCCCATGTACAAGATTGCGCCCAAGACCCCGCTGGCCTGCCAGCCCCATGACCACAGCCAGTGCGTCAGCA (double strand) [znuA promoter fragment]", "values": [{"measurement": "binding", "result": "binds"}]}]}
